{
  "source": "patent US20230235032A1",
  "about": "(published 2023)",
  "molecular_target": "T1, human α-CGRP (1-37, WT) (human, not fully specified; C-terminal amide; N-terminally biotinylated when captured on the chip; 125I-labelled in the radioligand assay)",
  "T1 construct": "also called full length human α-CGRP",
  "T1 peptide": "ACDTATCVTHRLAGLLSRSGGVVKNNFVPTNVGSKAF",
  "assay": "Biacore competition: 50 nM G1 Fab + 10 uM peptide, over human α-CGRP on SA chip",
  "protocol": "All Biacore assays were conducted in HBS-EP running buffer (10 mM HEPES pH 7.4, 150 mM NaCl, 3 mM EDTA, 0.005% v/v polysorbate P20). CGRP surfaces were prepared by diluting the N-biotinylated CGRP to a concentration of less than 0.001 mg/mL into HBS-EP buffer and injecting it across the SA sensor chip using variable contact times. […] Samples were typically injected for 1 minute at 100 μL/min and dissociation times of at least 10 minutes were allowed. […] An entire titration series (typically generated in duplicate) was fit globally to a 1:1 Langmuir binding model using the BIAevaluation program. This returned a unique pair of association and dissociation kinetic rate constants (respectively, kₒₙ and koff) for each binding interaction, whose ratio gave the equilibrium dissociation constant (KD=koff/kₒₙ).",
  "data": [
    {"binder": "anti-CGRP antibody G1, Fab fragment (Fab, V domains shown, Fab expressed in E. coli; the vector adds the CH1 constant domain of human IgG2 (Ig gamma-2 chain C region, P01859) and the human kappa light chain constant domain (CAA09181); purified on Ni-NTA, tag not described) VH: EVQLVESGGGLVQPGGSLRLSCAASGFTFSNYWISWVRQAPGKGLEWVAEIRSESDASATHYAEAVKGRFTISRDNAKNSLYLQMNSLRAEDTAVYYCLAYFDYGLAIQNYWGQGTLVTVSS VL: EIVLTQSPATLSLSPGERATLSCKASKRVTTYVSWYQQKPGQAPRLLIYGASNRYLGIPARFSGSGSGTDFTLTISSLEPEDFAVYYCSQSYNYPYTFGQGTKLEIK", "values": [
      {"measurement": "percentage of binding blocked by competing peptide", "result": 100, "unit": "%"}
    ]}
  ]
}
